From patent US12006519B2, “Polymerase mutants and use with 3′-OH unblocked reversible terminators” (Agilent Technologies, Inc., priority 2021, dated 2024)
Residue numbers refer to the chain shown, from its start. Names and notes keep the numbering of the source.

B1: K476W: Therminator with mutation K476W (9° N DNA pol numbering) (protein, UniProt Q56366 1-775, looked up, variant D141A E143A A485L K476W)
DNA polymerase: MILDTDYITENGKPVIRVFKKENGEFKIEYDRTFEPYFYALLKDDSAIEDVKKVTAKRHGTVVKVKRAEKVQKKFLGRPIEVWKLYFNHPQDVPAIRDRIRAHPAVVDIYEYDIPFAKRYLIDKGLIPMEGDEELTMLAFAIATLYHEGEEFGTGPILMISYADGSEARVITWKKIDLPYVDVVSTEKEMIKRFLRVVREKDPDVLITYNGDNFDFAYLKKRCEELGIKFTLGRDGSEPKIQRMGDRFAVEVKGRIHFDLYPVIRRTINLPTYTLEAVYEAVFGKPKEKVYAEEIAQAWESGEGLERVARYSMEDAKVTYELGREFFPMEAQLSRLIGQSLWDVSRSSTGNLVEWFLLRKAYKRNELAPNKPDERELARRRGGYAGGYVKEPERGLWDNIVYLDFRSLYPSIIITHNVSPDTLNREGCKEYDVAPEVGHKFCKDFPGFIPSLLGDLLEERQKIKRKMKATVDPLEWKLLDYRQRLIKILANSFYGYYGYAKARWYCKECAESVTAWGREYIEMVIRELEEKFGFKVLYADTDGLHATIPGADAETVKKKAKEFLKYINPKLPGLLELEYEGFYVRGFFVTKKKYAVIDEEGKITTRGLEIVRRDWSEIAKETQARVLEAILKHGDVEEAVRIVKEVTEKLSKYEVPPEKLVIHEQITRDLRDYKATGPHVAVAKRLAARGVKIRPGTVISYIVLKGSGRIGDRAIPADEFDPTKHRYDAEYYIENQVLPAVERILKAFGYRKEDLRYQKTKQVGLGAWLKVKGKK
modifications: Therminator
B2: A639F: Therminator with mutation A639F (9° N DNA pol numbering) (protein, UniProt Q56366 1-775, looked up, variant D141A E143A A485L A639F)
DNA polymerase: B1 DNA polymerase with W476K, A639F
modifications: Therminator
B3: I521L: Therminator with mutation I521L (9° N DNA pol numbering) (protein, UniProt Q56366 1-775, looked up, variant D141A E143A A485L I521L)
DNA polymerase: B1 DNA polymerase with W476K, I521L
modifications: Therminator
B4: T514S: Therminator with mutation T514S (9° N DNA pol numbering) (protein, UniProt Q56366 1-775, looked up, variant D141A E143A A485L T514S)
DNA polymerase: B1 DNA polymerase with W476K, T514S
modifications: Therminator
B5: G153D: Therminator with mutation G153D (9° N DNA pol numbering) (protein, UniProt Q56366 1-775, looked up, variant D141A E143A A485L G153D)
DNA polymerase: B1 DNA polymerase with G153D, W476K
modifications: Therminator
B6: L478S: Therminator with mutation L478S (9° N DNA pol numbering) (protein, UniProt Q56366 1-775, looked up, variant D141A E143A A485L L478S)
DNA polymerase: B1 DNA polymerase with W476K, L478S
modifications: Therminator
B7: R743A: Therminator with mutation R743A (9° N DNA pol numbering) (protein, UniProt Q56366 1-775, looked up, variant D141A E143A A485L R743A)
DNA polymerase: B1 DNA polymerase with W476K, R743A
B8: T144G: Therminator with mutation T144G (9° N DNA pol numbering) (protein, UniProt Q56366 1-775, looked up, variant D141A E143A A485L T144G)
DNA polymerase: B1 DNA polymerase with T144G, W476K
modifications: Therminator
B9: D718N: Therminator with mutation D718N (9° N DNA pol numbering) (protein, UniProt Q56366 1-775, looked up, variant D141A E143A A485L D718N)
DNA polymerase: B1 DNA polymerase with W476K, D718N
B10: K477M: Therminator with mutation K477M (9° N DNA pol numbering) (protein, UniProt Q56366 1-775, looked up, variant D141A E143A A485L K477M)
DNA polymerase: B1 DNA polymerase with W476K, K477M
modifications: Therminator
B11: Therminator: DNA polymerase of SEQ ID NO:12, derivative of Thermococcus sp. 9° N-7 DNA polymerase (D141A/E143A/A485L), New England Biolabs (protein)
chain: B1 DNA polymerase with W476K
B12: T590I: Therminator with mutation T590I (9° N DNA pol numbering) (protein, UniProt Q56366 1-775, looked up, variant D141A E143A A485L T590I)
DNA polymerase: B1 DNA polymerase with W476K, T590I
modifications: Therminator
B13: Pfu10-N12: Pfu10 variant with 15 conservative mutations plus M129A, SEQ ID NO:3 (protein)
chain: MILDVDYITEEGKPIIRLFKKENGKFRIEHDRTFRPYIYALLRDDSKIEEIKKITGERHGKIVRIVDVEKVEKKFLGKPVTVWRLYLEHPQDVPTIREKVKEHPAVIDIFEYDIPFAKRYLIDKGLVPAEGEEELKILAFAIATLYHEGEEFGKGPIIMISYADENEAKVITWKNIDLPYVEVVSSEREMIKRFVKIIKEKDPDIIVTYNGDSFDFPYLAKRAEKLGVKLTIGRDGSEPKMQRIGDMTAVEVKGRIHFDLYHVITRTINLPTYTLEAVYEAIFGKPKEKVYADEIAKAWESGENLERVAKYSMEDAKATYELGKEFLPMEIQLSRLVGQPLWDVSRSSTGNLVEWFLLRKAYERNEVAPNKPSEEEYQRRLRESYTGGFVKEPEKGLWENIVYLDFRALYPSIIITHNVSPDTLNLEGCKNYDIAPQVGHKFCKDIPGFIPSLLGHLLEERQKIKTKMKETQDPIEWILLDYRQKLIKLLANSFYGYYGYARARWYCRECAESVTAWGRKYIELTWKELEEKFGFKVLYIDTDGLHATIPGGESEEIKKKALEFVKYINSKLPGLLELEYEGFYKRGFFVTKKRYAVIDEEGKVITRGLEIVRRDWSEIAKETQARVLETILKHGDVEEAVRIVKEVIQKLANYEIPPEKLAIYEQITRPLHEYKAIGPHVAVAKKLAAKGVKIKPGMVIGYIVLRGDGPISNRAILAEEYDPKKHKYDAEYYIENQVLPAVLRILEGFGYRKEDLRYQKTRQVGLTSWLNIKKS
modifications: Mutant of Pyrococcus furiosus Polymerase

Columns and labels:
Assay type in all cases: biochemical
Lightning Terminators = assay: Sequencing-by-synthesis with Lightning Terminators (87 cycles); parameters: ARL (87 cycles) / Lead + Lag / Leading / Lagging: unit not given here
Procedure: (§1) This section generally describes how the present mutant polymerases were used for sequencing-by-synthesis, and how their performance in sequencing was measured. Sequencing was performed on a breadboard instrument, essentially as described in Hertzog D, et al., “A high-performance, low-cost approach to next-generation sequencing”, BioOptics World. 2011 Issue November/December 2011.
In this example, mutations were introduced into the DNA polymerase of SEQ ID NO: 12 (Therminator) in an attempt to improve its capability in sequencing with 3′-OH unblocked terminators. Such mutations to Thermococcus sp. 9° N DNA polymerase are disclosed in U.S. Pat. Nos. 9,273,352; 9,677,059; 9,765,309; U.S. Pat. App. Publication No. 20160032377. The following table summarizes sequencing metrics with Lightning Terminators.
As used in this example and those that follow, “Lead+Lag” refers to dephasing errors in Sequencing by Synthesis technology caused by either reading the next base signal (Lead) or reading the previous base signal (Lag) relative to current base signals. Such errors may arise because of imperfect incoporation of reversible terminators by the polymerase.
In this example, mutant polymerases were created by introducing certain mutations (D141A/E143A/A485L) which are present in Therminator. The three mutations were introduced at the equivalent positions in JDF3 (Thermococcus sp. JDF3) and Pfu (Pyrococcus furisosus) DNA polymerases. The new mutant polymerases were then evaluated for their performance in sequencing with Lightning Terminators, as described above.

Human DNA library = assay: Sequencing with Lightning Terminators, Human DNA library (120 cycles)
Procedure: as §1
(§2) In this example, a variety of mutations were introduced into Pfu10 by multi-site mutagenesis or into Pfu A486L/Y546H by domain substitutions to explore an acceptable degree of reduced identity and identify other mutant Pfu polymerases containing L486, F494, H546, and W477. […] Pfu10 and Pfu10-N12 were evaluated for performance in sequencing with Lightning Terminators, as described above.

E. coli DNA library = assay: Sequencing with Lightning Terminators, E. coli DNA library (120 cycles)
Procedure: as §1, §2

[1] = Therminator mutants, same unit concentrations (0.08 U/ul in cycle 1 and 0.008 U/ul in cycles 2-n)
[2] = alternative polymerases (D141A/E143A), same protein concentrations (0.02 ug/uL in cycle 1 and 0.002 ug/uL in cycles 2-n)

Molecule	% reads >85 bp (Lightning Terminators; [1]) [%]	ARL (87 cycles) (Lightning Terminators; [1])	Lead + Lag (Lightning Terminators; [1])	other results
B1	31.8	70.2	1.4	–
B2	6.9	58.5	2.3	–
B3	2.8	53.9	2.8	–
B4	38.3	72.0	1.1	–
B5	21.5	66.7	1.8	–
B6	19.6	65.8	1.6	–
B7	8.6	55.0	2.4	–
B8	31.8	70.5	1.4	–
B9	17.9	65.6	1.8	–
B10	27.7	68.8	1.6	–
B11	35.4	72.3	1.6	% reads >85 bp (Lightning Terminators; Example 3): 49.6%; FracQ30 (Lightning Terminators; Example 3): 0.58; Lagging (Lightning Terminators; Example 3): 0.61; Leading (Lightning Terminators; Example 3): 0.70; ARL (87 cycles) (Lightning Terminators; Example 3, Therminator 110 runs, Pfu10 12 runs): 76.0; % reads >85 (Lightning Terminators; [2]): 49.6%; ARL (87 cycles) (Lightning Terminators; [2]): 76.0; Lead + Lag (Lightning Terminators; [2]): 1.3
B12	32.2	68.1	1.3	–
B13	–	–	–	% reads >85 (Human DNA library; Human DNA library): 93.3%; ARL (120 cycles) (Human DNA library; Human DNA library): 111.6; FracQ30 (Human DNA library; Human DNA library): 0.68; Lead + Lag (Human DNA library; Human DNA library): 1.0; Sequencing performance with Lightning Terminators (in words) (Human DNA library; Human and E. coli libraries, compared with Pfu10): performs comparably if not slightly better than Pfu10; % reads >85 (E. coli DNA library): 82.6%; ARL (120 cycles) (E. coli DNA library): 93.8; FracQ30 (E. coli DNA library): 0.65; Lead + Lag (E. coli DNA library): 0.9
